Key:
[1] = molecular target: T1, TBK1 (Homo sapiens, UniProt Q9UHD2); type: binding
T1 sequence (Q9UHD2 1-729): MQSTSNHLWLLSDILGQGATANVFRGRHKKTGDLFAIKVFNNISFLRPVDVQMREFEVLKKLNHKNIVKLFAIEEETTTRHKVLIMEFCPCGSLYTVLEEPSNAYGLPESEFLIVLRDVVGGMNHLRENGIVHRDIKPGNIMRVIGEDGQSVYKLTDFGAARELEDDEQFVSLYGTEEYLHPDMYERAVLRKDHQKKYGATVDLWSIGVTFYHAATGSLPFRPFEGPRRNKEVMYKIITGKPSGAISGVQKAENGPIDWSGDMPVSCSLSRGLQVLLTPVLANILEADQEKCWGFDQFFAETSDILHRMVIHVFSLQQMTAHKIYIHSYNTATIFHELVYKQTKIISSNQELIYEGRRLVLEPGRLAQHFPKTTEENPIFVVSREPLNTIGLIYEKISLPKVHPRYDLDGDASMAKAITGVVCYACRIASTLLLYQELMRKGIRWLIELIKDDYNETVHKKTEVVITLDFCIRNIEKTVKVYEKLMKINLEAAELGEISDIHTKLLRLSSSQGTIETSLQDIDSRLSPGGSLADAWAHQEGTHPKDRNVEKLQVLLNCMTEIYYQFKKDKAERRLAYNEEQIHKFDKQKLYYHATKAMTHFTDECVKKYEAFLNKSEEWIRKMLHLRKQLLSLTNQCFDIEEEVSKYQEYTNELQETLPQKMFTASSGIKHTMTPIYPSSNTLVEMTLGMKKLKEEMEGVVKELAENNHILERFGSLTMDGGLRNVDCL

[2] = tested on: HK2; type: binding
[3] = tested on: murine macrophages and patients with TB; settings: ref [10],[11]; cited from earlier work
[4] = tested on: apoptosis and inflammation; settings: ref [10],[11]; cited from earlier work
[5] = tested on: Caspase 3, FasL, Fas, and Bax in epithelioid cells and multinucleated giant cells; settings: ref [45]; cited from earlier work

B1: MPT64: secretory immunodominant antigen of MTB, located in the RD2 region (protein)
chain: APKTYCEELKGTDTGQACQIQMSDPAYNINISLPSYYPDQKSLENYIAQTRDKFLSAATSSTPREAPYELNITSATYQSAIPPRGTQAVVLKVYQNAGGTHPTTTYKAFDWDQAYRKPITYDTLWQADTDPLPVVFPIVQGELSKQTGQQVSIAPNAGLDPVNYQNFAVTNDGVIFFFNPGELLPEAAGPTQVLVPRSAIDSMLA
region of MPT protein binding TBK1 [1]: The N-terminal domain of MPT64 interacted with TBK1, and the core peptide sequences for binding were 24–28 and 34–38 peptides
domain of HK2 required for binding [2]: HK2 domain in HK2 were found to be essential for their interaction with MPT64
region of MPT64 binding HK2 [2]: The C-terminal of MPT64 was associated with HK2 and its essential peptides were located between 187–193
production of IFN-γ [3]: induced the production of IFN-γ in murine macrophages and patients with TB
apoptosis, TGF-β expression and inflammation [4]: reduced apoptosis by increasing the expression of TGF-β and reducing inflammation
relation to expression of apoptotic factors [5]: related to the expression of apoptotic factors, such as Caspase 3, FasL, Fas, and Bax
